Consider 7 sequences from the supplement of paper PMC10065799, “High-throughput profiling of sequence recognition by tyrosine kinases and SH2 domains using bacterial peptide display” (eLife, 2023).

One series has as its target c-Src SH2. The series is described as follows: SH2 binding enrichment of the phosphorylated peptide, bacterial display (enrichment ratio); higher = better substrate or ligand; peptides without Tyr show the background.
The next series has as its target Grb2 SH2 (UniProt P62993). Described as above.
Another series deals with SHP2-C SH2. Described as above.
The next series has as its target MERTK (UniProt Q12866). The series is described as follows: phosphorylation enrichment, bacterial display (enrichment ratio); higher = better substrate or ligand; peptides without Tyr show the background.
The next series addresses FGFR1 (UniProt P11362). Described as above.
The target of a further series is EPHB2 (UniProt P29323). The description is as above.
In the next series the test system is c-Abl (mouse). Described as above.
Another series concerns the target FGFR3 (UniProt P22607). Described as above.
The next series deals with Fyn (UniProt P06241). The description is as above.
The target in a further series is EPHB1 (UniProt P54762). Described as above.
Another series relates to Fer (mouse). The series is described as above.
A further series relates to c-Src. The description is as above.
Another series concerns the target Fes (UniProt P07332). The description is as above.
In a further series the test system is AncSZ. Described as above.
The next series concerns the target Hck (UniProt P08631). The series is described as above.
In the next series the target is Jak2 (UniProt O60674). The description is as above.
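Throughout, for SH2 binding enrichment of the phosphorylated peptide, bacterial display: peptide library displayed on the E. coli surface as eCPX fusions, selected cells deep-sequenced, score is each peptide's frequency after selection divided by its frequency in the input.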
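Throughout, for phosphorylation enrichment, bacterial display: 11-residue human phosphosite peptides and single-mutation variants displayed on the E. coli surface, counted by deep sequencing, each peptide's frequency after selection divided by its frequency in the unselected input library; frequency after pTyr selection over input frequency; kinase dosed for 20-30% of maximal phosphorylation in three min.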

FGFR3, sequence (P22607 whole entry, looked up): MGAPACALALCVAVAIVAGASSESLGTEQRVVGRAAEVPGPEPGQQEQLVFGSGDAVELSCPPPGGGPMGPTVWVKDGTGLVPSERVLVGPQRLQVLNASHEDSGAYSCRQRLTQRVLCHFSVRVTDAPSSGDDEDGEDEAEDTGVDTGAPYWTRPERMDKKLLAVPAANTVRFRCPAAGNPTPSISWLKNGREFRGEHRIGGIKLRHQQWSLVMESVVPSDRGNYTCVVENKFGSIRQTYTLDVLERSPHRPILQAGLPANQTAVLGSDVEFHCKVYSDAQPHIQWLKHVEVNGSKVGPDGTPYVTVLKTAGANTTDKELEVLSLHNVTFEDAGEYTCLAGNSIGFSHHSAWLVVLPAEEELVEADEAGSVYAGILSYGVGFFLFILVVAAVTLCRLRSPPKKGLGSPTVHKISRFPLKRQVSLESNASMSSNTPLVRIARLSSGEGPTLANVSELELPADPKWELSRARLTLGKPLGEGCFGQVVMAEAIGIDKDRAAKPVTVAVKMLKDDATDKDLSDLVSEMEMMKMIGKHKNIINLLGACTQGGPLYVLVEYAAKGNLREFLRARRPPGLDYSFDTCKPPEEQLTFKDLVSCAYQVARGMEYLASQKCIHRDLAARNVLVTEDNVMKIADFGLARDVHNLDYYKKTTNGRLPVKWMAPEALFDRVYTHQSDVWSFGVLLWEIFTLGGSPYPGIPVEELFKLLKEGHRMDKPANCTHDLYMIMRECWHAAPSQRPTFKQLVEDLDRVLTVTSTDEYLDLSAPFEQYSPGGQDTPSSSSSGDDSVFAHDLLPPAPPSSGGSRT
EPHB1, sequence (P54762 whole entry, looked up): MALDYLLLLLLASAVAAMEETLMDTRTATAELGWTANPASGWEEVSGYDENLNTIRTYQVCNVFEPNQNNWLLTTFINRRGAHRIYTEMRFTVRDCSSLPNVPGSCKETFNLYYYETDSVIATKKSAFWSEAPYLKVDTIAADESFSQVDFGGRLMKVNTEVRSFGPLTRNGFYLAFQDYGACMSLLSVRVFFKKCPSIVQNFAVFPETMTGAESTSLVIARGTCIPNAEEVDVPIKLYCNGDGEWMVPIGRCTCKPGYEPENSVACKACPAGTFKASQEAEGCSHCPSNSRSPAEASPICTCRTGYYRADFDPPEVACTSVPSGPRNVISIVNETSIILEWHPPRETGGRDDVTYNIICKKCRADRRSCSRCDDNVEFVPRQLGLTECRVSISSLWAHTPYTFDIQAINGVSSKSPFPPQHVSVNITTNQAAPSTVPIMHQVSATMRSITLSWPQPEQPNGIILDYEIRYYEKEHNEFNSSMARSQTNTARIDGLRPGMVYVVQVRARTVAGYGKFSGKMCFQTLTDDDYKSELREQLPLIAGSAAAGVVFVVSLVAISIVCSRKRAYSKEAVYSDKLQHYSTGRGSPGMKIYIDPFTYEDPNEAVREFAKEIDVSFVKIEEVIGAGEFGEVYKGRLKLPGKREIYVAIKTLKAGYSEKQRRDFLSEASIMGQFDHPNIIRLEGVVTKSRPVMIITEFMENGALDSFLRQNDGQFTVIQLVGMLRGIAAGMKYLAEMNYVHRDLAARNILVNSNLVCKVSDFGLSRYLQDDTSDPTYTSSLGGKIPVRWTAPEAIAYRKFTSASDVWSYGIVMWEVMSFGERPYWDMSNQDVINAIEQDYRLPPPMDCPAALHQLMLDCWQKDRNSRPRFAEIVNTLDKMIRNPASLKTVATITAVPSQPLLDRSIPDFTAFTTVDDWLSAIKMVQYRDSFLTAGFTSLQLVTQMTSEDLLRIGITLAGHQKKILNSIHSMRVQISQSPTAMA
MERTK, sequence (Q12866 whole entry, looked up): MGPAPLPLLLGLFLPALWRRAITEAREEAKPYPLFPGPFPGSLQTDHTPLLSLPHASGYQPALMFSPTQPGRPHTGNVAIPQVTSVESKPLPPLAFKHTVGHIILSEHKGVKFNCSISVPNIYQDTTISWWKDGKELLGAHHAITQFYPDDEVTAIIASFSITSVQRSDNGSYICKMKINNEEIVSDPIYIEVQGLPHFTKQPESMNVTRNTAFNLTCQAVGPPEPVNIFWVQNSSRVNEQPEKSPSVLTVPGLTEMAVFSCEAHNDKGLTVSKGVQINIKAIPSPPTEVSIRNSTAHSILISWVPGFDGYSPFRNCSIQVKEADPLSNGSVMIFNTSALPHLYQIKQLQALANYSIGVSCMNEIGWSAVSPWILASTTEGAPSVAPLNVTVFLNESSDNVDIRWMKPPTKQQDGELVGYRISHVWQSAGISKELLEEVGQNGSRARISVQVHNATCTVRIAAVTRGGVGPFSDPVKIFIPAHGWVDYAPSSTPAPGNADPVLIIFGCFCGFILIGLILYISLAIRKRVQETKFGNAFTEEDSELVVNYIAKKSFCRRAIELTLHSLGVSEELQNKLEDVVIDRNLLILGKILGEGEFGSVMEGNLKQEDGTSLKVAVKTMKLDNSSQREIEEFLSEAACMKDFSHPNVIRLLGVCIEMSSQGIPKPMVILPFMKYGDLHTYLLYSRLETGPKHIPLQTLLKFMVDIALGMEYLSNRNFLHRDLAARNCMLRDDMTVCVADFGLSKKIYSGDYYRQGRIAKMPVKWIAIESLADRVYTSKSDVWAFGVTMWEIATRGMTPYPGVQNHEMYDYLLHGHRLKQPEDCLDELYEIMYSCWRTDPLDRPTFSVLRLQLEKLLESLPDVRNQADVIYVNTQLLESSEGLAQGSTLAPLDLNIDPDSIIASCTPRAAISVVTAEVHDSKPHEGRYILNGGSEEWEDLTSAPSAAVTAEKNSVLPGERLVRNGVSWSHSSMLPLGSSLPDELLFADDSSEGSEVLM
Fyn, sequence (P06241 whole entry, looked up): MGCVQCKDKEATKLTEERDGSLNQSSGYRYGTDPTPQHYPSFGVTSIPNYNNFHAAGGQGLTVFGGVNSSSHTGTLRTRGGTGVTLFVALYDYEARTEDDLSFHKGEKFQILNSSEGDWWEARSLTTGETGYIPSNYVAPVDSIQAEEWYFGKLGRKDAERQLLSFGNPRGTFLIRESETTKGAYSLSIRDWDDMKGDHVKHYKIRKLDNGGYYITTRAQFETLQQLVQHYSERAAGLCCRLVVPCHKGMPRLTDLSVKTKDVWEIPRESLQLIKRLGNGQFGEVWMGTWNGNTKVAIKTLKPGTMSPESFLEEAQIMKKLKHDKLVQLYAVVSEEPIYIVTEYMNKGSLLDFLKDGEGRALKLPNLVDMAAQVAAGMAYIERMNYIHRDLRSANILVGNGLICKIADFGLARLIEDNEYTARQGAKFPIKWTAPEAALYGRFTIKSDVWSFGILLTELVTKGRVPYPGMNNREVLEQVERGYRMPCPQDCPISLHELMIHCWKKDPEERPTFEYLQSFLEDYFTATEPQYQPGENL
EPHB2, sequence (P29323 whole entry, looked up): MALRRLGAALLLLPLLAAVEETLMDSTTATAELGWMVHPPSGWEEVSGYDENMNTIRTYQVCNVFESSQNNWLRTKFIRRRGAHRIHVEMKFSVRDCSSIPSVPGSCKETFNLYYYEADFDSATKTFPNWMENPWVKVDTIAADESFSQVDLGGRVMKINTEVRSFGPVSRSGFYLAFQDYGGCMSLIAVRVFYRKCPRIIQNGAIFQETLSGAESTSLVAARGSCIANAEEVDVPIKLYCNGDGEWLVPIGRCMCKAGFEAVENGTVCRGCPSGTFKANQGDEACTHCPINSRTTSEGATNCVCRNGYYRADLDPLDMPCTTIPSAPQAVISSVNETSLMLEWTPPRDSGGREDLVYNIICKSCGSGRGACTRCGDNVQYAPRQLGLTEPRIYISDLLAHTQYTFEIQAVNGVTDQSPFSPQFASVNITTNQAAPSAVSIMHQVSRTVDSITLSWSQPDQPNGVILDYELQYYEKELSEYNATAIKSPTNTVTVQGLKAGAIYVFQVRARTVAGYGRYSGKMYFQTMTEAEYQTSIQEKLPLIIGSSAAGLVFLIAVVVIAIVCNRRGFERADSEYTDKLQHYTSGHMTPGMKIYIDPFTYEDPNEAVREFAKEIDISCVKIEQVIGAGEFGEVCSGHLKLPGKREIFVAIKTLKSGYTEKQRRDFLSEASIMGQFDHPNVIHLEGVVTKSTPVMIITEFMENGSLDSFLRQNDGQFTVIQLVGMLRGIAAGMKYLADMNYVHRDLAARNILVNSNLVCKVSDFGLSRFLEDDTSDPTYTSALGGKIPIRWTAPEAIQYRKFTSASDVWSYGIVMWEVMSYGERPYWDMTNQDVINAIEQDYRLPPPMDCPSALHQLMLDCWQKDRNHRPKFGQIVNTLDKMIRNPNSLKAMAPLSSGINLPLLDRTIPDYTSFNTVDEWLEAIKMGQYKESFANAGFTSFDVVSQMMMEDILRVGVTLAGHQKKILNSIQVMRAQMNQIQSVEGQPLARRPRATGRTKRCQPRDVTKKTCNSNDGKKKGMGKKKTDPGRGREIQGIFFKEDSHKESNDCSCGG
Hck, sequence (P08631 whole entry, looked up): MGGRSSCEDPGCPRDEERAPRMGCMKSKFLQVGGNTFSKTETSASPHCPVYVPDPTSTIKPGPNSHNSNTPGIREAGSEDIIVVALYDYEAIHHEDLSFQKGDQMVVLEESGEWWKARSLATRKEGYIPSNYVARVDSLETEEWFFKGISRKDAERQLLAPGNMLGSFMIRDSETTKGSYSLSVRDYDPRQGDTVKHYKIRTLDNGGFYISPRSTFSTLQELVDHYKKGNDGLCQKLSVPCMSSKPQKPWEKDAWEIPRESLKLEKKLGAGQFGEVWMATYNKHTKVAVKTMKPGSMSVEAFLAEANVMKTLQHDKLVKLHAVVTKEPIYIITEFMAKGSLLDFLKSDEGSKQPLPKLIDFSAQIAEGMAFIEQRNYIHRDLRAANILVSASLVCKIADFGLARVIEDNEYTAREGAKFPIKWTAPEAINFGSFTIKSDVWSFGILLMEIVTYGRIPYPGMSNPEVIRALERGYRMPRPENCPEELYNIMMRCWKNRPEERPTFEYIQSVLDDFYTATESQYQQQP

GRSTCYWPRPR [GAGE12J_Y10_Y9C]: the SH2 binding enrichment with c-Src SH2 was found to be 0.507; with Grb2 SH2, 1.03; with SHP2-C SH2, 0.831. Also, the phosphorylation enrichment in the series with MERTK worked out at 0.567; in the series with FGFR1, 0.538; with EPHB2, 0.512; with c-Abl (mouse) it was 0.697; with FGFR3 it was 0.531; with Fyn, 0.543. Further, the phosphorylation enrichment came out at 0.502 with EPHB1; 0.602 in the series on Fer (mouse); 0.649 in the series on c-Src; 0.686 with Fes; 0.762 in the series on AncSZ; 0.557 with Hck. Also, in the series with Jak2, the phosphorylation enrichment turned out to be 0.885.

For the sequence REIIAYQPFGK [PRKCG_Y529_P524R_YF], the SH2 binding enrichment came out at 1.01 in the series with c-Src SH2, 1.19 with Grb2 SH2 and 0.951 with SHP2-C SH2. Besides, the phosphorylation enrichment in the series with MERTK amounted to 0.305; with FGFR1, 0.305; in the series with EPHB2, 0.385; in the series on c-Abl (mouse), 0.705; in the series with FGFR3, 0.398; in the series with Fyn, 0.499. Also, the phosphorylation enrichment in the series with EPHB1 turned out to be 0.51; with Fer (mouse), 0.291; in the series on c-Src it was 0.466; with Fes, 0.635; in the series with AncSZ it was 0.524; in the series with Hck it was 0.438. In the series with Jak2, the phosphorylation enrichment is 0.584.

In the case of TKDTFYKQRMF [GBA_Y451_P454R], the SH2 binding enrichment with c-Src SH2 was 0.396; with Grb2 SH2, 0.83; with SHP2-C SH2, 0.68. Also, the phosphorylation enrichment in the series with MERTK stood at 0.372; with FGFR1, 0.41; with EPHB2, 0.406; in the series with c-Abl (mouse) it was 0.458; in the series with FGFR3 it was 0.391; with Fyn, 0.344. The phosphorylation enrichment was found to be 0.359 in the series with EPHB1; 0.416 with Fer (mouse); 0.351 in the series on c-Src; 0.579 with Fes; 0.56 with AncSZ; 0.339 with Hck. Moreover, the phosphorylation enrichment with Jak2 amounted to 0.404.

Consider EKIANYKEGTY [CLRN1_Y171], for which the SH2 binding enrichment with c-Src SH2 was 0.433; with Grb2 SH2, 0.803; in the series with SHP2-C SH2, 0.641. Moreover, the phosphorylation enrichment with MERTK is 0.41; with FGFR1 it was 0.45; with EPHB2 it was 0.389; with c-Abl (mouse) it was 0.76; with FGFR3, 0.449; with Fyn it was 0.546. The phosphorylation enrichment was determined as 0.573 with EPHB1; 0.552 in the series with Fer (mouse); 0.468 with c-Src; 0.704 with Fes; 0.671 with AncSZ; 0.489 in the series with Hck. Further, the phosphorylation enrichment with Jak2 was found to be 0.654.

On to KMKGDYFRFLA [YWHAG_Y130_YF], for which the SH2 binding enrichment with c-Src SH2 was determined as 1.22; in the series with Grb2 SH2, 1.71; with SHP2-C SH2, 1.6. In addition, the phosphorylation enrichment is 0.632 with MERTK; 5.05 in the series with FGFR1; 0.509 in the series with EPHB2; 0.806 with c-Abl (mouse); 3.83 with FGFR3; 1.01 with Fyn. The phosphorylation enrichment is 0.804 in the series with EPHB1; 0.282 in the series with Fer (mouse); 2.11 in the series on c-Src; 0.689 with Fes; 0.722 with AncSZ; 0.543 in the series with Hck. In addition, in the series with Jak2, the phosphorylation enrichment was determined as 4.54.

RENGPYYASYP [GDAP2_Y487_T489A]: the SH2 binding enrichment with c-Src SH2 is 0.705; in the series with Grb2 SH2 it was 0.822; in the series with SHP2-C SH2 it was 1.13. The phosphorylation enrichment was 7.74 with MERTK; 2.29 in the series with FGFR1; 5.74 with EPHB2; 1.94 in the series with c-Abl (mouse); 1.92 with FGFR3; 8.25 in the series with Fyn. In addition, the phosphorylation enrichment was determined as 1.58 with EPHB1; 0.691 with Fer (mouse); 7.26 in the series with c-Src; 0.869 in the series with Fes; 1.04 in the series with AncSZ; 5.46 with Hck. Moreover, the phosphorylation enrichment with Jak2 was determined as 0.661.

As for TIQDAYMHITS [ADCY10_Y318_A313T], the SH2 binding enrichment with c-Src SH2 is 1.26; with Grb2 SH2 it was 0.902; with SHP2-C SH2 it was 0.895. In addition, the phosphorylation enrichment with MERTK was determined as 0.529; with FGFR1 it was 0.624; with EPHB2, 0.398; with c-Abl (mouse), 0.525; in the series with FGFR3, 0.43; in the series with Fyn, 0.51. Besides, the phosphorylation enrichment came out at 0.479 with EPHB1; 0.416 in the series with Fer (mouse); 0.451 with c-Src; 0.799 with Fes; 0.7 in the series on AncSZ; 0.496 in the series with Hck. For the same sequence, the phosphorylation enrichment with Jak2 turned out to be 0.676.
